In series [1] the test system is TGF-β-signalling. Nature of the series: TGF-β-induced SBE-promoter (SBE-Luc) activity in human epithelial cells. Format: cell-based. The procedure:
(§1) The expression plasmids Flag-WT-CYLD, HA-WT-CYLD, Flag-H/N-CYLD, HA-C/S-CYLD, Flag-WT-Smad3, C/A-TβRI, and the reporter plasmids SBE-Luc, PAI-1-Luc, and NF-κB-Luc were previously described. Flag-WT-Akt1, pRK5-HA-Ub WT, pRK5-HA-Ub K63, and pRK5-HA-Ub K48 were from Addgene, and K to R mutants of Akt were generated with WT-Akt1 using QuickChange XL Site-Directed Mutagenesis kit (Stratagene). All transient transfections were carried out using TransIT-LT1 reagent (Minis) or Lipofectamine (Invitrogen) according to manufacturers' instructions.

In series [2] the test system is TGF-β-signalling. In words: SBE-Luc activity in TβR-deficient DR26 and R1B cells. Format: cell-based, mink. The source says: Having identified CYLD as a negative regulator of TGF-β-signalling and lung fibrosis, we next sought to determine how CYLD inhibits TGF-β-signalling. TGF-β-ligands bind to a type II receptor (TβRII), which recruits and phosphorylates a type I receptor (TβRI). The activated TβRI then phosphorylates the Smad subgroup known as receptor-activated Smads (R-Smad), for example, Smad3, which can bind to Co-Smad Smad4. The R-Smad and Co-Smad complex then undergoes nuclear translocation for target gene regulation. To first determine at which level CYLD inhibits TGF-β-signalling, we took advantage of the available lung epithelial cell lines, DR26 and R1B that are derived from the WT Mv1Lu cells and lack functional […] TβRI, respectively. […] We next determined whether CYLD exerts its inhibitory effect on TGF-β-signalling at the level or downstream of TβRI by assessing the effects of siCYLD on WT-Smad3-induced SBE-Luc activity in TβRI-deficient R1B cells. […] To further determine whether CYLD inhibits TGF-β-signalling by likely targeting Smad3, we next evaluated the effect of CYLD knockdown in Smad3-deficient MEF cells.
A549, HeLa and HEK293 cells were maintained in the F12-K, minimal essential medium Eagle's with Earle's balanced salt solution (EMEM), and DMEM […]. […]

For series [3], the system named is NF-κB. In words: TNF-α-induced NF-κB-Luc activity. Format: cell-based. The settings on record: TNF-α 10 ng ml−1. Here is the method:
as §1

Series [4] concerns PAI-1. In words: TGF-β-induced PAI-1 expression (promoter activity, mRNA) in human cells. Type of series: cell-based. The settings on record: A549 and HeLa cells. Here is the method: Total RNA was isolated using TRIzol reagent following the manufacturer's instructions. Synthesis of complementary DNA from total RNA was performed with MultiScribe reverse transcriptase. Real-time quantitative PCR was performed using an ABI 7500 Sequence Detection System (Applied Biosystems). Relative quantities of mRNAs were calculated using the comparative threshold cycle method and normalized using human and mouse glyceraldehyde-3-phosphate dehydrogenase as an endogenous control. The primer sequences for mouse COL1A2, COL3A1, CTGF and PAI-1, and human PAI-1, CHIP, and Smad3 are as follows. Mouse CTGF: 5′-[…]-3′ (SEQ ID NO:1) and 5′-[…]-3′ (SEQ ID NO:2); mouse COL1A2: 5′-[…]-3′ (SEQ ID NO:3) and 5′-[…]-3′ (SEQ ID NO:4); mouse COL3A1: 5′-[…]-3′ (SEQ ID NO:5) and 5′-[…]-3′ (SEQ ID NO:6); mouse PAI-1: 5′-[…]-3′ (SEQ ID NO:7) and 5′-[…]-3′ (SEQ ID NO:8); human PAI-1: 5′-[…]-3′ (SEQ ID NO:9) and 5′-[…]-3′ (SEQ ID NO:10); human CHIP: 5′-[…]-3′ (SEQ ID NO:11) and 5′-[…]-3′ (SEQ ID NO:12).
as §1

Consider 1 molecule from patent US9951335B2, “Compositions and methods for treating otitis media and other conditions with inhibitors of CYLD” (Georgia State University Research Foundation, Inc., priority 2012, dated 2018).

B1: siCYLD: RNA-mediated interference for downregulating CYLD expression using pSuper-CYLD, SEQ ID NO:13 (nucleic acid)
chain: GATCCCCGAGCTACTGAGGACAGAAATTCAAGAGATTTCTGTCCTCAGTAGCTCTTTTTGGAAA
modifications: expressed from pSuper vector
B1: the “TGF-β-induced Smad-binding element (SBE)-dependent promoter activity” value in series [1] (A549 and HeLa cells) is recorded as “markedly enhanced”. In addition, in series [1] (A549 cells transfected with various amounts), the “TGF-β-induced SBE-dependent promoter activity, dose-dependent manner” value is on record as “enhanced”. For the same molecule, the “TGF-β-induced SBE-Luc activity” value in series [1] (human primary bronchial epithelial NHBE cells) is on record as “enhanced”. Besides, the “WT-Smad3-induced SBE-Luc activation” value in series [2] (TβRI-deficient R1B cells) is on record as “markedly enhanced”. For the same molecule, the “constitutively active (C/A)-TβRI-induced SBE-Luc activity” value in series [2] (TβRII-deficient DR26 cells) is listed as “markedly enhanced”. Further, the “TNF-α-induced activation of NF-κB-Luc activity” value in series [3] was “greatly enhanced”. The “TGF-α-responsive PAI-1 promoter activity” value in series [4] was “markedly enhanced”. In addition, the “PAI-1 messenger RNA” value in series [4] (TGF-β stimulated) was “markedly enhanced”.
